The results in this text go back to publication PMC10808355.

For experiment [1], the target named is Chaetomium thermophilum 80S ribosome (Ct80S) (C. thermophilum (endogenous in C. thermophilum)). The experiment can be described thus: cryo-EM structure; 400 nM C. thermophilum 80S ribosomes (with random nascent chains) mixed with full-length CtMAP2 (66 µM final), 30 min at RT, then vitrified.
Experiment [2] has the same target. As to the kind of experiment: cryo-EM structure; 400 nM C. thermophilum 80S ribosomes mixed with CtMAP2∆N (66 µM final), 30 min at RT, then vitrified; particles separated by translocation state (rotated, non-rotated).
The target in experiment [3] is Human 80S ribosome, non-translating (Hs80S) (human (endogenous in HeLa)) (UniProt P62750). As to the kind of experiment: cryo-EM structure; 200 nM non-translating H. sapiens 80S ribosomes mixed with HsMAP2 (59 µM final), 30 min at RT, then vitrified.

With “Chaetomium thermophilum methionine aminopeptidase 2, full length (CtMAP2) (enzyme)”, in experiment [1], the percent of purified ribosomes that accommodate MAP2 amounted to 100%.

In experiment [2], “CtMAP2(∆N1-73), autoproteolysis product of C. thermophilum MAP2 without the N-terminal extension (domain or fragment)” yielded a fold of the percentage in the A-site, against the full-length CtMAP2 dataset of 4 fold and a percent of 80S ribosomes with CtMAP2∆N at the PTE of 70%.

In experiment [3], “Human methionine aminopeptidase 2 (HsMAP2) (from UniProt P50579 1-478) (enzyme)” displayed a percent of purified ribosomes that accommodate MAP2 of 100%.
